The assay concerns the target TRPV1-CT44 (TRPV1 C-terminal residues 759–802) (rat) (UniProt O35433). In words: other fluorescence titration.

As usually defined, the stoichiometry N is the number of molecules, sites or subunits per partner or assembly.

Chain of TRPV1-CT44 (TRPV1 C-terminal residues 759–802) (rat) (O35433 759-802): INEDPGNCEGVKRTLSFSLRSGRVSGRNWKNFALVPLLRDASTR

“calmodulin (CaM), wild type (from UniProt P0DP23 1-149) (natural protein)” had a stoichiometry N of 1.

Values taken from PMC3483115.
